Laboratory results: patent US20260227416A1 (published 2026)

Molecular target: T1, CD20 on SU-DHL4 cells (UniProt P11836 1-297, limits assumed)
T1 sequence (looked up): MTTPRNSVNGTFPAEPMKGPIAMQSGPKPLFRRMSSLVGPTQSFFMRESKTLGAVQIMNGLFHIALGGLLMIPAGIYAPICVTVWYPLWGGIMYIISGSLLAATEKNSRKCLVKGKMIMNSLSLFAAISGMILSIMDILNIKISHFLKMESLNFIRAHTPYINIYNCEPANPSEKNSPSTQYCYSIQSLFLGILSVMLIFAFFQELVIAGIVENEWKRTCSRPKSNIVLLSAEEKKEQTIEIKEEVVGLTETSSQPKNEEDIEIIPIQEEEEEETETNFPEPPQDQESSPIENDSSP
Assay: cell-based or functional assay

B1: Rituximab chimeric antibody (antibody, human IgG1, kappa, V domains shown)
VH: VQLQQPGAELVKPGASVKMSCKASGYTFTSYNMHWVKQTPGRGLEWIGAIYPGNGDTSYNQKFKGKATLTADKSSSTAYMQLSSLTSEDSAVYYCARSTYYGGDWYFNVWGAGTTVTVSA
VL: QIVLSQSPAILSASPGEKVTMTCRASSSVSYIHWFQQKPGSSPKPWIYATSNLASGVPVRFSGSGSGTSYSLTISRVEAEDAATYYCQQWTSNPPTFGGGTKLEIKR
- EC50 values of target cell killing (ADCC, SU-DHL4 target cells): ~10 ng/mL
